# Experimental data published in patent US20160297884A1 (Pfizer, published 2016).
# Where a chain is given by its changes, count along the chain named.
# T1: Human BCMA (human, UniProt Q02223 1-54, limits assumed)
# T1 construct: Soluble analyte in SPR; construct not described; also called huBCMA; B-cell maturation antigen
# T1 sequence (looked up): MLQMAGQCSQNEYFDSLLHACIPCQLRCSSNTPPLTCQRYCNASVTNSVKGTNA
# T2: Human BCMA (human, UniProt Q02223 1-54, limits assumed)
# T2 construct: also called huBCMA; B-cell maturation antigen
# T2 sequence (looked up): T1 sequence (looked up)
# B1: L3.PY/L3.KY/H3.TAQ (antibody, V domains shown)
# VH: EVQLLESGGGLVQPGGSLRLSCAASGFTFGSYAMTWVRQAPGKGLEWVSAISGSGGNTFYADSVKGRFTISRDNSKNTLYLQMNSLRAEDTAVYYCTRVSPIAAQMDYWGQGTLVTVSS
# VL: EIVLTQSPGTLSLSPGERATLSCRASQSVSSSYLAWYQQKPGQAPRLLIYGASSRATGIPDRFSGSGSGTDFTLTISRLEPEDFAVYYCKYYPYPPSFTFGQGTKVEIK
# notes: IgG
# B2: L3.PY/L3.KY/H3.YA (antibody, V domains shown)
# VH: B1 VH with T97A, A103Y, Q105G
# VL: B1 VL
# notes: IgG
# B3: COMBO_Rd4_0.6nM_C21 (antibody, V domains shown)
# VH: EVQLLESGGGLVQPGGSLRLSCAASGFTFSSYPMSWVRQAPGKGLEWVSAIGGSGGSLPYADSVKGRFTISRDNSKNTLYLQMNSLRAEDTAVYYCARYWPMDSWGQGTLVTVSS
# VL: EIVLTQSPGTLSLSPGERATLSCRASQSVSSSYLAWYQQKPGQAPRLLMYDASIRATGIPDRFSGSGSGTDFTLTISRLEPEDFAVYYCQQYQSWPLTFGQGTKVEIK
# notes: IgG
# B4: A02_Rd4_6nM_C01 (antibody, V domains shown)
# VH: B3 VH with P33A, S35N, G52T, G53A, L58T, P59Y, D103S, S104L
# VL: B3 VL with S31A, S32Y, Q93E, S94R
# notes: IgG
# B5: A02_Rd4_6nM_C23 (antibody, V domains shown)
# VH: B3 VH with P33A, S35N, G52S, G53D, L58G, P59W, D103S, S104L
# VL: B3 VL with S31V, S32E, Q93A, S94R
# notes: IgG
# B6: A02_Rd4_0.6nM_C01 (antibody, V domains shown)
# VH: B3 VH with P33A, S35N, G52L, G53S, L58T, P59Y, S104I
# VL: B3 VL with A25G, S26G
# notes: IgG; also called P5AC1
# B7: A02_Rd4_6nM_C03 (antibody, V domains shown)
# VH: B3 VH with P33A, S35N, G52S, G53D, L58T, P59Y, S104I
# VL: B3 VL with S31N, S32L, S94G
# notes: IgG
# B8: A02_Rd4_6nM_C04 (antibody, V domains shown)
# VH: B3 VH with P33A, S35N, G52M, G53S, S57P, P59Y, D103A, S104L
# VL: B3 VL with S31A, S32L, S94V
# notes: IgG
# B9: A02_Rd4_6nM_C19 (antibody, V domains shown)
# VH: B3 VH with P33A, S35N, G52S, G53D, L58R, P59W, D103S, S104D
# VL: B3 VL with S31V, S32L, Q93L, S94A
# notes: IgG
# B10: A02_Rd4_6nM_C25 (antibody, V domains shown)
# VH: B3 VH with P33A, S35N, G52S, G53D, L58R, P59W, D103T, S104P
# VL: B3 VL with Q93L, S94D
# notes: IgG
# B11: A02_Rd4_0.6nM_C10 (antibody, V domains shown)
# VH: B3 VH with P33A, S35N, G52S, S54W
# VL: B3 VL with S31A, S32Q, S94R
# notes: IgG
# B12: A02_Rd4_0.6nM_C13 (antibody, V domains shown)
# VH: B3 VH with P33A, S35N, G52S, G53D, S57Y, L58R, P59Y, D103S, S104L
# VL: B3 VL with L34W, Q93E
# notes: IgG
# B13: A02_Rd4_6nM_C26 (antibody, V domains shown)
# VH: B3 VH with P33A, S35N, G52S, G53D, L58T, P59Y, D103S, S104L
# VL: B3 VL with S32L, S94V
# notes: IgG
# B14: A02_Rd4_0.6nM_C26 (antibody, V domains shown)
# VH: B3 VH with P33A, S35N, G52L, G53M, L58T, P59Y, D103S, S104L
# VL: B3 VL with R24G, A25P
# notes: IgG
# B15: A02_Rd4_0.6nM_C03 (antibody, V domains shown)
# VH: B3 VH with P33A, S35N, G52S, G53D, L58K, P59W, D103S, S104L
# VL: B3 VL with Q93F, S94T
# notes: IgG
# B16: A02_Rd4_6nM_C16 (antibody, V domains shown)
# VH: B3 VH with P33A, S35N, G52S, G53D, S54F, L58T, P59Y, S104I
# VL: B3 VL with S31D, S32L, S94T
# notes: IgG; also called P5AC16
# B17: A02_Rd4_0.6nM_C09 (antibody, V domains shown)
# VH: B3 VH with P33A, S35N, G52S, G53D, L58M, P59W, D103S, S104L
# VL: B3 VL
# notes: IgG
# B18: C01_Rd4_0.6nM_C03 (antibody, V domains shown)
# VH: B3 VH
# VL: B3 VL with Q27C, S28D, S32T, M49I, I54S, T57P, Q93M, S94R, W95S
# notes: IgG
# B19: A02_Rd4_6nM_C22 (antibody, V domains shown)
# VH: B3 VH with P33A, S35N, I51V, G52L, G53D, L58T, P59Y, D103T, S104P
# VL: B3 VL with S94V
# notes: IgG
# B20: A02_Rd4_6nM_C07 (antibody, V domains shown)
# VH: B3 VH with P33A, S35N
# VL: B3 VL with S31P, S32Y, Q93E, S94R
# notes: IgG
# B21: A02_Rd4_0.6nM_C06 (antibody, V domains shown)
# VH: B3 VH with P33A, S35N, G52S, G53D, L58A, P59W, D103S, S104L
# VL: B3 VL with S31V, S32L, S94R
# notes: IgG
# B22: A02_Rd4_6nM_C05 (antibody, V domains shown)
# VH: B3 VH with P33A, S35N, G52F, G53A, L58T, P59Y, D103T, S104P
# VL: B3 VL with S94R
# notes: IgG
# B23: A02_Rd4_6nM_C10 (antibody, V domains shown)
# VH: B3 VH with P33A, S35N, G52S, G53D, L58C, P59W, D103T, S104P
# VL: B3 VL with S30E, S31M, Q93A, S94H
# notes: IgG
# B24: C01_Rd4_0.6nM_C06 (antibody, V domains shown)
# VH: B3 VH
# VL: B3 VL with Q27E, S28A, S30P, S32T, M49I, I54S, T57P, Q93S, S94A, W95F
# notes: IgG
# B25: A02_Rd4_6nM_C08 (antibody, V domains shown)
# VH: B3 VH with P33A, S35N, G52L, G53D, L58T, P59Y, D103S, S104P
# VL: B3 VL with S31F, S32L, Q93G
# notes: IgG
# Target: T1, Human BCMA
# Assay: SPR, IgG immobilised, 37 C
# Description: (§1) All experiments were performed on a Bio-Rad Proteon XPR36 surface Plasmon resonance biosensor (Bio-Rad, Hercules, Calif.). […] The analysis temperature for the immobilization was 25° C. and the running buffer was HBS-T+(10 mM HEPES, 150 mM NaCl, 0.05% Tween-20, pH 7.4). Channels were activated in the analyte (horizontal) direction by injecting a mixture of 1 mM ECD and 0.25 mM NHS for 3 minutes at a flow rate of 30 μL/min. IgGs were immobilized on the activated spots by injecting them in the ligand (vertical) direction at 20 μg/mL in 10 mM Acetate pH 4.5 buffer for 1.5 minutes at […]. The activated surfaces were blocked by injecting 1M ethanolamine, pH 8.5 in the analyte direction for 3 minutes at 30 μL/min.
# (§2) The analysis temperature for the BCMA binding analysis was 37° C. or 25° C. in a running buffer of HBS-T+, supplemented with 1 mg/mL BSA. A kinetic titration method was employed for the interaction analysis as described in Abdiche, et al. Human BCMA (huBCMA) or cynomolgus monkey BCMA (cyBCMA) analyte was injected in the analyte direction using a series of injections from low to high concentration. The concentrations used were 0.08 nM, 0.4 nM, 2 nM, 10 nM and 50 nM (a 5-membered series, with a 5-fold dilution factor and top concentration of 50 nM). The association time for a given analyte dilution was two minutes. Immediately after the 50 nM BCMA injection, dissociation was monitored for 2 hours.
# (§3) The sensorgrams were double-referenced and fit to a 1:1 Langmuir with mass transport kinetic titration model in BIAevaluation Software version 4.1.1 (GE Lifesciences, Piscataway, N.J.).
Binder,Kd [nM],T ½ [min],koff [s⁻¹],kon [M⁻¹ s⁻¹]
B1,0.23,17.8,0.000649,2.79e+06
B2,0.28,12.7,0.000912,3.3e+06

# Target: T3, Cynomolgus monkey BCMA (cynomolgus monkey)
# T3 construct: Soluble analyte in SPR; also called cyBCMA; Cyno BCMA
# Assay: SPR, IgG immobilised, cyno BCMA analyte
# Description: as §1, §2, §3
Binder,Kd [nM],koff [s⁻¹],kon [M⁻¹ s⁻¹]
B3,0.084,0.000304,3.63e+06
B4,0.401,0.000583,1.45e+06
B5,0.157,0.000414,2.63e+06
B6,0.655,0.00157,2.39e+06
B7,0.158,0.000185,1.17e+06
B8,0.381,0.000831,2.18e+06
B9,0.26,0.000661,2.54e+06
B10,0.22,0.00033,1.5e+06
B11,1.84,0.00163,883000
B12,0.56,0.00128,2.29e+06
B13,0.203,0.000448,2.21e+06
B14,0.941,0.00256,2.71e+06
B15,0.201,0.000426,2.12e+06
B16,0.118,0.000158,1.34e+06
B17,0.082,0.000174,2.13e+06
B18,2.53,0.0119,4.72e+06
B19,0.176,0.000324,1.84e+06
B20,1.14,0.000786,691000
B21,0.058,0.000105,1.81e+06
B22,0.95,0.00129,1.36e+06
B23,0.472,0.000898,1.9e+06
B24,1.95,0.0121,6.22e+06
B25,5.07,0.0113,2.23e+06

# Target: T2, Human BCMA
# Assay: SPR, IgG immobilised, human BCMA analyte
# Description: as §1, §2, §3
Binder,Kd [nM],koff [s⁻¹],kon [M⁻¹ s⁻¹]
B3,0.009,0.000115,1.34e+07
B4,0.03,9.2e-05,3.11e+06
B5,0.021,0.000255,1.22e+07
B6,0.193,0.000915,4.74e+06
B7,0.075,0.000126,1.69e+06
B8,0.135,0.000603,4.47e+06
B9,0.049,0.000148,3e+06
B10,0.065,0.00018,2.75e+06
B11,0.129,0.000296,2.3e+06
B12,0.066,0.000566,8.53e+06
B13,0.033,0.000139,4.26e+06
B14,0.061,0.000443,7.26e+06
B15,0.043,0.000182,4.27e+06
B16,0.09,0.000141,1.56e+06
B17,0.018,9.75e-05,5.5e+06
B18,0.964,0.015,1.55e+07
B19,0.054,0.000182,3.38e+06
B20,0.128,0.000189,1.48e+06
B21,0.021,7.37e-05,3.49e+06
B22,0.099,0.000308,3.1e+06
B23,0.07,0.000315,4.51e+06
B24,0.847,0.0154,1.82e+07
B25,0.188,0.000738,3.92e+06
